# Experimental data as given in article PMC5593896, “A signal-on built in-marker electrochemical aptasensor for human prostate-specific antigen based on a hairbrush-like gold nanostructure”.
# Molecular target: prostate-specific antigen (PSA) (human, UniProt P07288 25-261)
# Test: electrochemical aptasensor (signal-on, MB marker); immobilized aptamer; linear range 0.125-128 ng/mL, LOD 50 pg/mL (40 in Table 1); no Kd in material; 20 mM Tris-HCl pH 7.4, 1 h at 37 °C, then rinsed with Tris; salt not stated
# Settings: protein: commercial; label: methylene blue (3', redox marker)
# Sequence of prostate-specific antigen (PSA) (P07288 25-261): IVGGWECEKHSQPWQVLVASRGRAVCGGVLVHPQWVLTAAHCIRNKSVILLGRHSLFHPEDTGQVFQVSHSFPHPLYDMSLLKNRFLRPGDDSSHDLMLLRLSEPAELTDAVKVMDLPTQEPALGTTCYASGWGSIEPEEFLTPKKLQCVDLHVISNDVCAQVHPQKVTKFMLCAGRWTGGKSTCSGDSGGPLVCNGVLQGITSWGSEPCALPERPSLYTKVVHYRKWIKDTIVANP
binder,measurement,value
"TTTTTAATTAAAGCTCGCCATCAAATAGCTTT (ssDNA, 5' SH-(CH2)6; 3' methylene blue) [PSA aptamer (SH/MB)]",binding result,binds
